Results as given in the supplement of paper PMC10724198.
± gives the standard deviation of the averaged measurements.
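Further: PSI is a weighted mean of sequencing reads over stability bins, variants kept only with over 10 reads, mCherry proximal and sfGFP distal, peptide attached via GGGS linker.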

The sequences below were run on Saccharomyces cerevisiae (assay: protein stability index of tFT-peptide fusion (C-terminal peptide) (PSI (0-1 scale)); higher = more stable (slower turnover)). Details: genetic background: das1 deletion; temperature: 30 C.
Description: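 MPS profiling in S. cerevisiae of the tFT-X12 degron library: putative degron peptides plus stable controls, 12 aa, fused to the C-terminus of a sfGFP-mCherry timer. Cells are FACS-sorted into 8 mCherry/sfGFP bins and deep-sequenced. PSI runs from 0 (unstable) to 1 (stable). Backgrounds are wild type, das1Δ and doa10Δ at 30 °C, and wild type, das1Δ, cdc34-1 and cdc53-1 at 37 °C; 2-3 technical replicates each.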
Work on AFPSSVILMVFS yielded a protein stability index of 0.29 ± 0.032. For AFVVYSGSHGLV, the protein stability index was 0.659 ± 0.014. In the case of AGALAVALPCIC, the protein stability index is reported as 0.399 ± 0.03. In the case of AGGGGRFWVCVG, the protein stability index is reported as 0.6377 ± 0.0058. ALLVLTVSYVFS gave a protein stability index of 0.0924 ± 0.028. With ALVWYSLSIIVN the protein stability index was 0.0515 ± 0.03. In the case of APGGRGAAGPSC, the protein stability index is reported as 0.631 ± 0.036. Work on APPLPFPTPPPS yielded a protein stability index of 0.644 ± 0.042. ARALLGVGWYWV gave a protein stability index of 0.645 ± 0.018. ARCKRSLSGGIG was tested, and the protein stability index was 0.512 ± 0.012. ARSGGYLMVVLV gave a protein stability index of 0.41 ± 0.032. ASFVCWSVCALG showed a protein stability index of 0.4 ± 0.022. With ASGFLVIPLWVF the protein stability index was 0.323 ± 0.029. Work on ASICAFFCWFLV yielded a protein stability index of 0.457 ± 0.023. In the case of ASSFYVDLVLVS, the protein stability index is reported as 0.341 ± 0.034. With AVTMSYQCGIFI the protein stability index was 0.564 ± 0.0081. AYACSILRCKSS gave a protein stability index of 0.636 ± 0.012. CAGRQGRERGHT gave a protein stability index of 0.658 ± 0.043. CALFLLSSPSPT was tested, and the protein stability index was 0.634 ± 0.018. CASIVDGFAFRF was tested, and the protein stability index was 0.632 ± 0.011. Sequence CFCPILFPRCLA has a protein stability index of 0.579 ± 0.045. CFGFMFLLLFDV was tested, and the protein stability index was 0.334 ± 0.024. CFRRPLLRVVLT showed a protein stability index of 0.451 ± 0.037. Sequence CFSYLLIVLLFP has a protein stability index of 0.198 ± 0.024. In the case of CFVPFFLPLCAF, the protein stability index is reported as 0.0864 ± 0.03. With CGILACSVCTFF the protein stability index was 0.427 ± 0.027. With CGLLWFYSFFLF the protein stability index was 0.391 ± 0.04. For CGLYNQFCLFLY, the protein stability index was 0.527 ± 0.018. CGVWVVVASAYR gave a protein stability index of 0.302 ± 0.02. CGWVRRARVKMM showed a protein stability index of 0.63 ± 0.026. Sequence CHFLLPFLFTCA has a protein stability index of 0.244 ± 0.043. For FGGVFCVMARLV, the protein stability index was 0.629 ± 0.034. Sequence GGGGGGRWGRLC has a protein stability index of 0.66 ± 0.019. IRRWGRCRVRCM showed a protein stability index of 0.428 ± 0.037. Sequence LIVFSGFLFLLS has a protein stability index of 0.373 ± 0.031. Sequence PVPERTSATEPP has a protein stability index of 0.617 ± 0.038. RLLLLPGPLALQ showed a protein stability index of 0.67 ± 0.022. For RRAVGLANFTIK, the protein stability index was 0.678 ± 0.062. Sequence VLICFSVFSWVV has a protein stability index of 0.0368 ± 0.01. VPPGCSLFAFIL was tested, and the protein stability index was 0.644 ± 0.025.

Same assay, conditions: genetic background: das1 deletion; temperature: 37 C
AEIVCLTDGLLF showed a protein stability index of 0.7252 ± 0.0028. AFFLLVSLLVSP was tested, and the protein stability index was 0.219 ± 0.0041. For AFPSSVILMVFS, the protein stability index was 0.425 ± 0.0063. AFVVYSGSHGLV was tested, and the protein stability index was 0.7518 ± 0.0027. AGALAVALPCIC gave a protein stability index of 0.531 ± 0.011. For AGGGGRFWVCVG, the protein stability index was 0.726 ± 0.02. Work on ALLVLTVSYVFS yielded a protein stability index of 0.188 ± 0.0081. Sequence ALVWYSLSIIVN has a protein stability index of 0.0682 ± 0.0034. APGGRGAAGPSC gave a protein stability index of 0.751 ± 0.033. APPLPFPTPPPS was tested, and the protein stability index was 0.693 ± 0.038. In the case of ARALLGVGWYWV, the protein stability index is reported as 0.761 ± 0.02. Sequence ARCKRSLSGGIG has a protein stability index of 0.5452 ± 0.00083. With ARSGGYLMVVLV the protein stability index was 0.601 ± 0.011. Sequence ASFVCWSVCALG has a protein stability index of 0.525 ± 0.015. For ASGFLVIPLWVF, the protein stability index was 0.491 ± 0.022. ASICAFFCWFLV gave a protein stability index of 0.601 ± 0.024. In the case of ASSFYVDLVLVS, the protein stability index is reported as 0.516 ± 0.013. AVTMSYQCGIFI was tested, and the protein stability index was 0.71 ± 0.028. AYACSILRCKSS was tested, and the protein stability index was 0.713 ± 0.026. Work on CAGRQGRERGHT yielded a protein stability index of 0.722 ± 0.016. Sequence CALFLLSSPSPT has a protein stability index of 0.768 ± 0.012. Work on CASIVDGFAFRF yielded a protein stability index of 0.786 ± 0.0097. With CFCPILFPRCLA the protein stability index was 0.6659 ± 0.0023. CFGFMFLLLFDV was tested, and the protein stability index was 0.448 ± 0.013. With CFRRPLLRVVLT the protein stability index was 0.59 ± 0.025. CFSYLLIVLLFP was tested, and the protein stability index was 0.334 ± 0.031. In the case of CFVPFFLPLCAF, the protein stability index is reported as 0.109 ± 0.058. CGILACSVCTFF gave a protein stability index of 0.6336 ± 0.0037. In the case of CGLLWFYSFFLF, the protein stability index is reported as 0.5187 ± 0.0046. With CGLYNQFCLFLY the protein stability index was 0.6526 ± 0.0024. CGVWVVVASAYR gave a protein stability index of 0.49431 ± 0.00019. Work on CGWVRRARVKMM yielded a protein stability index of 0.709 ± 0.014. Sequence CHFLLPFLFTCA has a protein stability index of 0.3685 ± 0.00097. FGGVFCVMARLV showed a protein stability index of 0.689 ± 0.01. Work on GGGGGGRWGRLC yielded a protein stability index of 0.7572 ± 0.0018. IRRWGRCRVRCM was tested, and the protein stability index was 0.616 ± 0.018. LIVFSGFLFLLS was tested, and the protein stability index was 0.5639 ± 0.0056. For PVPERTSATEPP, the protein stability index was 0.6671 ± 0.006. With RLLLLPGPLALQ the protein stability index was 0.7 ± 0.016. For RRAVGLANFTIK, the protein stability index was 0.693 ± 0.028. VLICFSVFSWVV gave a protein stability index of 0.0531 ± 0.0097. Sequence VPPGCSLFAFIL has a protein stability index of 0.7794 ± 0.005.

Same assay, conditions: genetic background: doa10 deletion; temperature: 30 C
AEIVCLTDGLLF showed a protein stability index of 0.641 ± 0.028. AFFLLVSLLVSP was tested, and the protein stability index was 0.0944 ± 0.0098. Work on AFPSSVILMVFS yielded a protein stability index of 0.228 ± 0.0063. With AFVVYSGSHGLV the protein stability index was 0.648 ± 0.011. With AGALAVALPCIC the protein stability index was 0.316 ± 0.0093. AGGGGRFWVCVG was tested, and the protein stability index was 0.215 ± 0.00078. Work on ALLVLTVSYVFS yielded a protein stability index of 0.057 ± 0.035. In the case of ALVWYSLSIIVN, the protein stability index is reported as 0.0397 ± 0.0011. In the case of APGGRGAAGPSC, the protein stability index is reported as 0.639 ± 0.021. In the case of APPLPFPTPPPS, the protein stability index is reported as 0.647 ± 0.029. For ARALLGVGWYWV, the protein stability index was 0.225 ± 0.014. Work on ARCKRSLSGGIG yielded a protein stability index of 0.531 ± 0.0073. ARSGGYLMVVLV gave a protein stability index of 0.351 ± 0.0013. Sequence ASFVCWSVCALG has a protein stability index of 0.384 ± 0.029. For ASGFLVIPLWVF, the protein stability index was 0.17 ± 0.0047. ASICAFFCWFLV showed a protein stability index of 0.326 ± 0.0088. In the case of ASSFYVDLVLVS, the protein stability index is reported as 0.286 ± 0.0084. In the case of AVTMSYQCGIFI, the protein stability index is reported as 0.5372 ± 0.0042. AYACSILRCKSS was tested, and the protein stability index was 0.186 ± 0.016. Work on CAGRQGRERGHT yielded a protein stability index of 0.63499 ± 0.00057. Work on CALFLLSSPSPT yielded a protein stability index of 0.659 ± 0.021. For CASIVDGFAFRF, the protein stability index was 0.646 ± 0.023.
